The text below walks through data of patent publication US20230220042A1 (SHANGHAI JIAO TONG UNIVERSITY SCHOOL OF MEDICINE, published 2023).

The target of assay [1] is T1, FcγRIIB (human, UniProt P31994 43-217, biotin-labeled).
T1 construct: extracellular domain; Bought protein; also called CD32b
T1 sequence (looked up): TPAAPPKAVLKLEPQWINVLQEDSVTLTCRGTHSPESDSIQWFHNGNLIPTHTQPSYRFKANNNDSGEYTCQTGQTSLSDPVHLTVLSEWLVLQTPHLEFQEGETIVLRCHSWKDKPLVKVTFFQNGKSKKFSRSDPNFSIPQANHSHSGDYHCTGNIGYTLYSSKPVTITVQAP
Nature of the assay: ELISA; relative affinity to FcγRIIB over that to FcγRIIA131R. The method, then:
(§1) One hundred μl (2 μg/mL) of antibody or mutant thereof were added to the enzyme-linked plate to be coated overnight, then the supernatant was discarded. The plate was blocked with PBS containing 1% BSA for 2 hours, and washed with PBST (PBS containing 0.05% Tween 20). Biotin-labeled FcγR extracellular domain protein (Beijing Sino Biological Co., Ltd) of appropriate concentration was added and incubated at room temperature for 1 hour, then the supernatant was discarded and the plate was washed with PBST. The Biotin-labeled protein was detected by incubating with Streptavidin-HRP (BD BioSciences) at room temperature for 1 hour. The supernatant was removed, and the color-developing solution was added for color development for 20-40 minutes to determine the absorbance of 650 nm (A650).
(§2) Anti-human OX40 antibodies containing these new Fc mutation combinations are expressed and the binding property of the mutant antibody to FcγR are analyzed by Enzyme-linked immunosorbent assay (ELISA).
A general note: ELISA stands for enzyme-linked immunosorbent assay.

The target of another assay is T2, FcγRI (human, UniProt P12314 16-292, biotin-labeled).
T2 construct: extracellular domain; Bought protein; also called CD64
T2 sequence (P12314 16-292): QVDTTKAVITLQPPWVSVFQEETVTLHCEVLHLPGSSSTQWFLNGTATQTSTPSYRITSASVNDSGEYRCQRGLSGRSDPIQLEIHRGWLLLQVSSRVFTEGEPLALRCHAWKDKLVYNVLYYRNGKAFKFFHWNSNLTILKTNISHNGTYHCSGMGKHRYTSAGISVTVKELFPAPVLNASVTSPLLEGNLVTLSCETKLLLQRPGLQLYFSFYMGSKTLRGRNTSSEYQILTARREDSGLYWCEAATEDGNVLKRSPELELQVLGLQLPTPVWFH
As to the kind of experiment: ELISA, coated antibody, biotin-FcγR.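 For Absorbance value: antibody coated at 2 µg/mL at 100 µL per well.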 The protocol: as §1, §2

The next assay concerns the target T3, FcγRIIIA^158V (human, UniProt P08637 17-208, biotin-labeled).
T3 construct: extracellular domain; Bought protein; also called RIIIAV; CD16a 158V
Nature of the assay: ELISA, coated antibody, biotin-FcγR.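 For Absorbance value: antibody coated at 2 µg/mL at 100 µL per well.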 The protocol:
as §1, §2

The target in a further assay is T4, FcγRIIA^131H (human, UniProt P12318 34-217, biotin-labeled).
T4 construct: extracellular domain; Bought protein; also called RIIAH
T4 sequence (looked up): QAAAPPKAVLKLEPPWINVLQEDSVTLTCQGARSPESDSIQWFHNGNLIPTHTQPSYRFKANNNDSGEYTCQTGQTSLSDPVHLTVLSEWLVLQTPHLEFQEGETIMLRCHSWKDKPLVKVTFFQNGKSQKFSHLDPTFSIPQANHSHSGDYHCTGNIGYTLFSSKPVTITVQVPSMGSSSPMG
Nature of the assay: ELISA, coated antibody, biotin-FcγR.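 For Absorbance value: antibody coated at 2 µg/mL at 100 µL per well.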 The protocol:
as §1, §2

The target in assay [2] is T1, FcγRIIB. As to the kind of experiment: ELISA, coated antibody, biotin-FcγR.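 For Absorbance value: antibody coated at 2 µg/mL at 100 µL per well.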 The method, then: as §1, §2
The next assay deals with T5, FcγRIIA^131R (human, UniProt P12318 34-217, biotin-labeled).
T5 construct: extracellular domain; Bought protein; also called RIIAR
T5 sequence (looked up): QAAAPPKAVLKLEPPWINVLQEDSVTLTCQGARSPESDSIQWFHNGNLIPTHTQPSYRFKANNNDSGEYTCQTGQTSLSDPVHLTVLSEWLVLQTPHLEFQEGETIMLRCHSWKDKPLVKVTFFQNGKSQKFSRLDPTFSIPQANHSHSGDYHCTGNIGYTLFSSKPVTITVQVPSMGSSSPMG
Nature of the assay: ELISA, coated antibody, biotin-FcγR.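 For Absorbance value: antibody coated at 2 µg/mL at 100 µL per well.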 The method, then:
as §1, §2

The next assay deals with T6, FcγRIIIA^158F (human, UniProt P08637 17-208, biotin-labeled).
T6 construct: extracellular domain; Bought protein; also called RIIIAF
T6 sequence (P08637 17-208): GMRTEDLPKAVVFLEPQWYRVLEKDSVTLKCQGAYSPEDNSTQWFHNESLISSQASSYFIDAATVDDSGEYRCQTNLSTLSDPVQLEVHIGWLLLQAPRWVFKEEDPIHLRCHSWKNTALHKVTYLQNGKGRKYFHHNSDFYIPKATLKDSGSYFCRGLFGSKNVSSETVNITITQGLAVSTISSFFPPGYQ
As to the kind of experiment: ELISA, coated antibody, biotin-FcγR.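 For Absorbance value: antibody coated at 2 µg/mL at 100 µL per well.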 The method, then:
as §1, §2

T3 sequence (P08637 17-208 F176V): as the sequence (P08637 17-208) above, with F160V counted along it

B1: IgG2 N297A (antibody, name in EU numbering)
heavy: QVQLQESGPGLVKPSGTLSLTCAVSGGSISSSIWWSWVRQPPGKGLEWIGEIHHSGNTNCNPSLKSRVTISIDKSKNQFSLKLTSVTAADTAVYYCARAGTGTTLDYWGQGTLVTVSSASTKGPSVFPLAPCSRSTSESTAALGCLVKDYFPEPVTVSWNSGALTSGVHTFPAVLQSSGLYSLSSVVTVPSSNFGTQTYTCNVDHKPSNTKVDKTVERKCCVECPPCPAPPVAGPSVFLFPPKPKDTLMISRTPEVTCVVVDVSHEDPEVQFNWYVDGVEVHNAKTKPREEQFASTFRVVSVLTVVHQDWLNGKEYKCKVSNKGLPAPIEKTISKTKGQPREPQVYTLPPSREEMTKNQVSLTCLVKGFYPSDIAVEWESNGQPENNYKTTPPMLDSDGSFFLYSKLTVDKSRWQQGNVFSCSVMHEALHNHYTQKSLSLSPGK
light: EIVLTQSPGTLSLSPGERATLSCRASQSVSGDYLAWYQQKLGQAPRLLIYGASIRATGIPDRFSGSGSGTDFTLTISKLEPEDFAVYYCQQYGSSPLTFGGGTKVEIKRTVAAPSVFIFPPSDEQLKSGTASVVCLLNNFYPREAKVQWKVDNALQSGNSQESVTEQDSKDSTYSLSSTLTLSKADYEKHKVYACEVTHQGLSSPVTKSFNRGEC
notes: Entries include an unstated signal peptide
Turning to B1, the RIIB/RIIAR in the assay with FcγRIIB [1] was determined as 0.57 ratio. Moreover, in the assay with FcγRI, the Absorbance value was 0.08 A650 and the “Relative binding affinity RI/G1” value was 0.03 ratio. Besides, in the assay with FcγRIIIA^158V, the Absorbance value was found to be 0.06 A650 and the “Relative binding affinity RIIIAV/G1” value came out at 0.06 ratio. Besides, in the assay with FcγRIIA^131H, the Absorbance value stood at 0.04 A650 and the “Relative binding affinity RIIAH/G1” value is 0.08 ratio. Besides, in the assay with FcγRIIB [2], the Absorbance value worked out at 0.07 A650, the “Increased factor of RIIB binding compared with wild-type IgG2” value (“Increased factor of RIIB binding” for short) was found to be 0.93 fold and the “Relative binding affinity RIIB/G1” value was determined as 0.09 ratio.

B2: anti-human OX40 IgG2 antibody Mut_1 (L328W) (antibody, name in EU numbering)
heavy: QVQLQESGPGLVKPSGTLSLTCAVSGGSISSSIWWSWVRQPPGKGLEWIGEIHHSGNTNCNPSLKSRVTISIDKSKNQFSLKLTSVTAADTAVYYCARAGTGTTLDYWGQGTLVTVSSASTKGPSVFPLAPCSRSTSESTAALGCLVKDYFPEPVTVSWNSGALTSGVHTFPAVLQSSGLYSLSSVVTVPSSNFGTQTYTCNVDHKPSNTKVDKTVERKCCVECPPCPAPPVAGPSVFLFPPKPKDTLMISRTPEVTCVVVDVSHEDPEVQFNWYVDGVEVHNAKTKPREEQFNSTFRVVSVLTVVHQDWLNGKEYKCKVSNKGWPAPIEKTISKTKGQPREPQVYTLPPSREEMTKNQVSLTCLVKGFYPSDIAVEWESNGQPENNYKTTPPMLDSDGSFFLYSKLTVDKSRWQQGNVFSCSVMHEALHNHYTQKSLSLSPGK
light: EIVLTQSPGTLSLSPGERATLSCRASQSVSGDYLAWYQQKLGQAPRLLIYGASIRATGIPDRFSGSGSGTDFTLTISKLEPEDFAVYYCQQYGSSPLTFGGGTKVEIKRTVAAPSVFIFPPSDEQLKSGTASVVCLLNNFYPREAKVQWKVDNALQSGNSQESVTEQDSKDSTYSLSSTLTLSKADYEKHKVYACEVTHQGLSSPVTKSFNRGEC
notes: Substitutions in Eu numbering; entries include an unstated signal peptide
With B2, the RIIB/RIIAR with FcγRIIB [1] stood at 1.02 ratio. Further, in the assay with FcγRI, the Absorbance value worked out at 0.17 A650 and the “Relative binding affinity RI/G1” value worked out at 0.06 ratio. In addition, in the assay with FcγRIIA^131R, the Absorbance value was determined as 0.22 A650 and the “Relative binding affinity RIIAR/G1” value came to 0.83 ratio. Besides, in the assay with FcγRIIIA^158F, the Absorbance value turned out to be 0.07 A650 and the “Relative binding affinity RIIIAF/G1” value was 0.38 ratio. Further, in the assay with FcγRIIIA^158V, the Absorbance value was 0.09 A650 and the “Relative binding affinity RIIIAV/G1” value was determined as 0.09 ratio. In the assay with FcγRIIA^131H, the Absorbance value came out at 0.35 A650 and the “Relative binding affinity RIIAH/G1” value was found to be 0.62 ratio. For the same molecule, in the assay with FcγRIIB [2], the Absorbance value was 0.64 A650, the “Increased factor of RIIB binding” value stood at 8.51 fold and the “Relative binding affinity RIIB/G1” value was 0.85 ratio.

B3: anti-human OX40 IgG2 antibody Mut_3 (S267V/S298L/L328W) (antibody, name in EU numbering)
heavy: QVQLQESGPGLVKPSGTLSLTCAVSGGSISSSIWWSWVRQPPGKGLEWIGEIHHSGNTNCNPSLKSRVTISIDKSKNQFSLKLTSVTAADTAVYYCARAGTGTTLDYWGQGTLVTVSSASTKGPSVFPLAPCSRSTSESTAALGCLVKDYFPEPVTVSWNSGALTSGVHTFPAVLQSSGLYSLSSVVTVPSSNFGTQTYTCNVDHKPSNTKVDKTVERKCCVECPPCPAPPVAGPSVFLFPPKPKDTLMISRTPEVTCVVVDVVHEDPEVQFNWYVDGVEVHNAKTKPREEQFNLTFRVVSVLTVVHQDWLNGKEYKCKVSNKGWPAPIEKTISKTKGQPREPQVYTLPPSREEMTKNQVSLTCLVKGFYPSDIAVEWESNGQPENNYKTTPPMLDSDGSFFLYSKLTVDKSRWQQGNVFSCSVMHEALHNHYTQKSLSLSPGK
light: EIVLTQSPGTLSLSPGERATLSCRASQSVSGDYLAWYQQKLGQAPRLLIYGASIRATGIPDRFSGSGSGTDFTLTISKLEPEDFAVYYCQQYGSSPLTFGGGTKVEIKRTVAAPSVFIFPPSDEQLKSGTASVVCLLNNFYPREAKVQWKVDNALQSGNSQESVTEQDSKDSTYSLSSTLTLSKADYEKHKVYACEVTHQGLSSPVTKSFNRGEC
notes: as for B2
For B3, the RIIB/RIIAR with FcγRIIB [1] amounted to 1.44 ratio. Further, in the assay with FcγRI, the Absorbance value is 0.18 A650 and the “Relative binding affinity RI/G1” value is 0.07 ratio. In addition, in the assay with FcγRIIA^131R, the Absorbance value came out at 0.23 A650 and the “Relative binding affinity RIIAR/G1” value amounted to 0.87 ratio. In the assay with FcγRIIIA^158F, the Absorbance value came to 0.08 A650 and the “Relative binding affinity RIIIAF/G1” value was 0.4 ratio. Moreover, in the assay with FcγRIIIA^158V, the Absorbance value came out at 0.07 A650 and the “Relative binding affinity RIIIAV/G1” value came to 0.08 ratio. In the assay with FcγRIIA^131H, the Absorbance value stood at 0.34 A650 and the “Relative binding affinity RIIAH/G1” value stood at 0.6 ratio. Moreover, in the assay with FcγRIIB [2], the Absorbance value came out at 0.94 A650, the “Increased factor of RIIB binding” value turned out to be 12.6 fold and the “Relative binding affinity RIIB/G1” value was determined as 1.25 ratio.

B4: anti-human OX40 IgG2 antibody Mut_2 (H268D/S298L/L328W) (antibody, name in EU numbering)
heavy: QVQLQESGPGLVKPSGTLSLTCAVSGGSISSSIWWSWVRQPPGKGLEWIGEIHHSGNTNCNPSLKSRVTISIDKSKNQFSLKLTSVTAADTAVYYCARAGTGTTLDYWGQGTLVTVSSASTKGPSVFPLAPCSRSTSESTAALGCLVKDYFPEPVTVSWNSGALTSGVHTFPAVLQSSGLYSLSSVVTVPSSNFGTQTYTCNVDHKPSNTKVDKTVERKCCVECPPCPAPPVAGPSVFLFPPKPKDTLMISRTPEVTCVVVDVSDEDPEVQFNWYVDGVEVHNAKTKPREEQFNLTFRVVSVLTVVHQDWLNGKEYKCKVSNKGWPAPIEKTISKTKGQPREPQVYTLPPSREEMTKNQVSLTCLVKGFYPSDIAVEWESNGQPENNYKTTPPMLDSDGSFFLYSKLTVDKSRWQQGNVFSCSVMHEALHNHYTQKSLSLSPGK
light: EIVLTQSPGTLSLSPGERATLSCRASQSVSGDYLAWYQQKLGQAPRLLIYGASIRATGIPDRFSGSGSGTDFTLTISKLEPEDFAVYYCQQYGSSPLTFGGGTKVEIKRTVAAPSVFIFPPSDEQLKSGTASVVCLLNNFYPREAKVQWKVDNALQSGNSQESVTEQDSKDSTYSLSSTLTLSKADYEKHKVYACEVTHQGLSSPVTKSFNRGEC
notes: as for B2
For the molecule B4, the RIIB/RIIAR with FcγRIIB [1] is 1.21 ratio. Moreover, in the assay with FcγRI, the Absorbance value came out at 0.14 A650 and the “Relative binding affinity RI/G1” value was 0.05 ratio. Also, in the assay with FcγRIIA^131R, the Absorbance value was 0.29 A650 and the “Relative binding affinity RIIAR/G1” value is 1.09 ratio. In addition, in the assay with FcγRIIIA^158F, the Absorbance value worked out at 0.07 A650 and the “Relative binding affinity RIIIAF/G1” value was 0.38 ratio. Also, in the assay with FcγRIIIA^158V, the Absorbance value is 0.06 A650 and the “Relative binding affinity RIIIAV/G1” value stood at 0.06 ratio. Further, in the assay with FcγRIIA^131H, the Absorbance value stood at 0.32 A650 and the “Relative binding affinity RIIAH/G1” value amounted to 0.56 ratio. In the assay with FcγRIIB [2], the Absorbance value worked out at 1 A650, the “Increased factor of RIIB binding” value amounted to 13.4 fold and the “Relative binding affinity RIIB/G1” value came to 1.33 ratio.
